Laboratory results reported in IntAct's records for PubMed 25910212.

Key:
cap2_human CAP2 [1] = target: cap2_human CAP2 (UniProt P40123)
cof2_human CFL2 = cof2_human CFL2 (UniProt Q9Y281)
cap2_human CAP2 [2] = target: cap2_human CAP2 (UniProt P40123); remark: listed apart in the source
pnma1_human PNMA1 = pnma1_human PNMA1 (UniProt Q8ND90)
praf1_human RABAC1 = praf1_human RABAC1 (UniProt Q9UI14)
ldaf1_human LDAF1 = ldaf1_human LDAF1 (UniProt Q96B96)
reep6_human REEP6 = reep6_human REEP6 (UniProt Q96HR9)
reep6_human REEP6, sequence (Q96HR9 whole entry): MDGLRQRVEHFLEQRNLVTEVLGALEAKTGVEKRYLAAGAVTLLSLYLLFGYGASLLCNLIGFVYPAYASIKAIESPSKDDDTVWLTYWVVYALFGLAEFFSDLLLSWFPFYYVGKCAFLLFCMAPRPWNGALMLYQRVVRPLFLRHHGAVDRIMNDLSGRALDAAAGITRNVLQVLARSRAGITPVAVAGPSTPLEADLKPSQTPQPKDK

shlb1_human SH3GLB1 = shlb1_human SH3GLB1 (UniProt Q9Y371)
tfp11_human TFIP11 = tfp11_human TFIP11 (UniProt Q9UBB9)
tfp11_human TFIP11, sequence (Q9UBB9 whole entry): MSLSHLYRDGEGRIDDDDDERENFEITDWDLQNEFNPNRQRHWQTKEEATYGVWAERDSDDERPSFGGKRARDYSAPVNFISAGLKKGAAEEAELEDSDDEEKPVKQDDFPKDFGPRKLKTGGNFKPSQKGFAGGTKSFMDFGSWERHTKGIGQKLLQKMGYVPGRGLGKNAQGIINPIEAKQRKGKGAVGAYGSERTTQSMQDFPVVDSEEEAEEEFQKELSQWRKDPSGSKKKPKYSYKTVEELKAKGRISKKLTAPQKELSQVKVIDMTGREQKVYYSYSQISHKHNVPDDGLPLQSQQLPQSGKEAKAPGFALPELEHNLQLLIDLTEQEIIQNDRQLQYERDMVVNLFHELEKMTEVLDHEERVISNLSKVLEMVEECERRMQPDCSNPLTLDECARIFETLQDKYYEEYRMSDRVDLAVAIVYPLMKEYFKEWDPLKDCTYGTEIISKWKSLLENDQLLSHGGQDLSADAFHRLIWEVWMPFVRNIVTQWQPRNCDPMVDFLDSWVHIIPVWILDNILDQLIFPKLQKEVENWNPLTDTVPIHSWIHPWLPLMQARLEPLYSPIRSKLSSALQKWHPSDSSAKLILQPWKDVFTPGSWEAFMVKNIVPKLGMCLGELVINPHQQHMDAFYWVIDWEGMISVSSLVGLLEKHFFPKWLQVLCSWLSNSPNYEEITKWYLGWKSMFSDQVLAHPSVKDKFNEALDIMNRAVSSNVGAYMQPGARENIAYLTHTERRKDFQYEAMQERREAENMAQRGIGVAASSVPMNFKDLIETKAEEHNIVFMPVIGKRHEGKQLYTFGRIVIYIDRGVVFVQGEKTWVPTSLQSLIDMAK

dtx2_human DTX2 = dtx2_human DTX2 (UniProt Q86UW9)
mdfi_human MDFI = mdfi_human MDFI (UniProt Q99750)
mdfi_human MDFI, sequence (Q99750 whole entry): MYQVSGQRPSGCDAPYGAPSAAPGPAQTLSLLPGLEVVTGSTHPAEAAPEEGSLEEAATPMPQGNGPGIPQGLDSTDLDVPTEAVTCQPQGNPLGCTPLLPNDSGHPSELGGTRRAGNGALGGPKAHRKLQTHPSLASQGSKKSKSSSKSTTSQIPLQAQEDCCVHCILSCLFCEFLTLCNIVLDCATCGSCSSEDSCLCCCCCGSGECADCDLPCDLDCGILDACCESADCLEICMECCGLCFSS

trip6_human TRIP6 = trip6_human TRIP6 (UniProt Q15654)
trip6_human TRIP6, sequence (Q15654 whole entry): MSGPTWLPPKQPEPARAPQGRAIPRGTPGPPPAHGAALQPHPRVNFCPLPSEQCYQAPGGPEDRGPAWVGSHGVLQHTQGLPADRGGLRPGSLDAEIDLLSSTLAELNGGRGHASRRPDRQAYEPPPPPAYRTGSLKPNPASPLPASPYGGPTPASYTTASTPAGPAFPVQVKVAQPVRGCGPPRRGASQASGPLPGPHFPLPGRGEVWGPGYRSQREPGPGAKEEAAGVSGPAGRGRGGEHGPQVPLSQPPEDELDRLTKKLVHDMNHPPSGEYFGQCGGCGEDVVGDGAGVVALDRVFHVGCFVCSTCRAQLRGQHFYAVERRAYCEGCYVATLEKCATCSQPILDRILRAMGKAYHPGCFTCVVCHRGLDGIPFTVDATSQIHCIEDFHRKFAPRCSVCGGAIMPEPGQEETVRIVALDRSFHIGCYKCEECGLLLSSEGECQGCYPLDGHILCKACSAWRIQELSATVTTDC

lzts2_human LZTS2 = lzts2_human LZTS2 (UniProt Q9BRK4)
lzts2_human LZTS2, sequence (Q9BRK4 whole entry): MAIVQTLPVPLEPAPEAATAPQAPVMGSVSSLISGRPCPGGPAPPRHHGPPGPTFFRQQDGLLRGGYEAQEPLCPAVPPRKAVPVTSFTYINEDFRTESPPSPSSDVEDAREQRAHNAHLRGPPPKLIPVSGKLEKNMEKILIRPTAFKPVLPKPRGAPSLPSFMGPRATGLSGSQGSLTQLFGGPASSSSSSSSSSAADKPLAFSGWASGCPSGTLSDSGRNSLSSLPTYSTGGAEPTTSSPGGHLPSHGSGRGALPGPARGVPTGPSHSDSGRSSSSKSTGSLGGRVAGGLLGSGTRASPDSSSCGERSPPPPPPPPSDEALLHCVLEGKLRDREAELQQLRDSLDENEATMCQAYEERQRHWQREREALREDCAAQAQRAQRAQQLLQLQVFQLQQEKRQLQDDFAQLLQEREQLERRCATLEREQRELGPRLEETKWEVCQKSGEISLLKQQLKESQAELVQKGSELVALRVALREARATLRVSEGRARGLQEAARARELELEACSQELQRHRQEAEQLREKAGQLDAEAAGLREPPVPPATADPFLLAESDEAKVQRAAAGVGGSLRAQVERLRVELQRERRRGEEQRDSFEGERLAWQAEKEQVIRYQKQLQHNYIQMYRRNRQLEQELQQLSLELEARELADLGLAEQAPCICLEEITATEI

kra32_human KRTAP3-2 = kra32_human KRTAP3-2 (UniProt Q9BYR7)
kra32_human KRTAP3-2, sequence (Q9BYR7 whole entry): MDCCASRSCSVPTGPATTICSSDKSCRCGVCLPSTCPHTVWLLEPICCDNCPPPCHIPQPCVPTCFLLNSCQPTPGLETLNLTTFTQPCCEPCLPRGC

smim3_human SMIM3 [3] = target: T1, smim3_human SMIM3 (UniProt Q9BZL3)
T1 sequence: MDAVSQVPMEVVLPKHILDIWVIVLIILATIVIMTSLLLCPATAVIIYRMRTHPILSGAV

SYNE4, Q8N205-2 = target: T2, SYNE4, Q8N205-2
T2 sequence: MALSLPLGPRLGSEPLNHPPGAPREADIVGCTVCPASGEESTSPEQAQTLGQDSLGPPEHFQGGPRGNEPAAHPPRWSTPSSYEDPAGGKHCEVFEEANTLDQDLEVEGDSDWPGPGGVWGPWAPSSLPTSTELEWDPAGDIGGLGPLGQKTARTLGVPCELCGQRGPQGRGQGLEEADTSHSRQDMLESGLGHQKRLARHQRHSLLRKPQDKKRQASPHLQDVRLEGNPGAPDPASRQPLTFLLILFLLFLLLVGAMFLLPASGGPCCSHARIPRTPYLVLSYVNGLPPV

smim3_human SMIM3 [4] = target: T1, smim3_human SMIM3; remark: listed apart in the source
tmm79_human TMEM79 = target: T3, tmm79_human TMEM79 (UniProt Q9BSE2)
T3 sequence: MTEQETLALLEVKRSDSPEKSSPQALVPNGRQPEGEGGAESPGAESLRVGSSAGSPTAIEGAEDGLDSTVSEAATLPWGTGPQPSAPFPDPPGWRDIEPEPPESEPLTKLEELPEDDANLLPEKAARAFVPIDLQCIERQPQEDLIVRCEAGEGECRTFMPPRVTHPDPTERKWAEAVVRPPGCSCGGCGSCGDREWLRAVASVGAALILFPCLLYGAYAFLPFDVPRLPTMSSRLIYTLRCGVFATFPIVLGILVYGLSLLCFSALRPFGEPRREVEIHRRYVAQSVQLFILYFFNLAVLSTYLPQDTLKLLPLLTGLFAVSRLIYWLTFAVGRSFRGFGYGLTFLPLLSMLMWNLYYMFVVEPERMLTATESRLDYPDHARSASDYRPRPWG

gsto2_human GSTO2 = gsto2_human GSTO2 (UniProt Q9H4Y5)

UBQLN1, Q9UMX0-2, sequence (Q9UMX0 other isoform, or with tags, fused parts or gaps): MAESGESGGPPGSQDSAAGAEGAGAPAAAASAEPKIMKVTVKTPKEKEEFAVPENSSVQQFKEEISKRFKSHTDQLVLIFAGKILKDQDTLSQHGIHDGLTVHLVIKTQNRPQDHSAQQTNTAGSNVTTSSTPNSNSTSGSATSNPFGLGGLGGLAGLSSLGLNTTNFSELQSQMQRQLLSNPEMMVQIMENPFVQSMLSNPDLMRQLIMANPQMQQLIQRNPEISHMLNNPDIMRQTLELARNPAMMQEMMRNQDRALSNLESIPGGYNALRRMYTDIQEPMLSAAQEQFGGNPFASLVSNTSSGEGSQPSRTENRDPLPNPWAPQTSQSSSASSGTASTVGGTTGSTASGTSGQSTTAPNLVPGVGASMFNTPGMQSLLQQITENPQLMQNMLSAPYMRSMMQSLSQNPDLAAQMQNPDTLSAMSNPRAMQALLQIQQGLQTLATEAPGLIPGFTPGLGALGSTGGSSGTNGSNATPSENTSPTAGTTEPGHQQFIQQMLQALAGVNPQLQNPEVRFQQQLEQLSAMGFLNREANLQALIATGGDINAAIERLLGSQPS
Erythroid transcription factor (Homo sapiens), P15976-2 D218G, sequence (P15976 other isoform, or with tags, fused parts or gaps D218G): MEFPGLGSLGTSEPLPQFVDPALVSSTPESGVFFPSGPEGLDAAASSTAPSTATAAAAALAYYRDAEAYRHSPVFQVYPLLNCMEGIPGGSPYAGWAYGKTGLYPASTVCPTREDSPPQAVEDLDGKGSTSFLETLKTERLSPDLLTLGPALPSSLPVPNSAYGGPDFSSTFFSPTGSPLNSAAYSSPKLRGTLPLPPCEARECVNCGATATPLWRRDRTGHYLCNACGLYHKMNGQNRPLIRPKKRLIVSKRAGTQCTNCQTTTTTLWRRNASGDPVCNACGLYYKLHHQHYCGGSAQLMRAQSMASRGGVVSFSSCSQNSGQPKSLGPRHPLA
Erythroid transcription factor (Homo sapiens), P15976-2 V205M, sequence (P15976 other isoform, or with tags, fused parts or gaps V205M): as the sequence (P15976 other isoform, or with tags, fused parts or gaps D218G) above
Erythroid transcription factor (Homo sapiens), P15976-2 G208R, sequence (P15976 other isoform, or with tags, fused parts or gaps G208R): as the sequence (P15976 other isoform, or with tags, fused parts or gaps D218G) above
pnma1_human PNMA1, sequence (Q8ND90 whole entry): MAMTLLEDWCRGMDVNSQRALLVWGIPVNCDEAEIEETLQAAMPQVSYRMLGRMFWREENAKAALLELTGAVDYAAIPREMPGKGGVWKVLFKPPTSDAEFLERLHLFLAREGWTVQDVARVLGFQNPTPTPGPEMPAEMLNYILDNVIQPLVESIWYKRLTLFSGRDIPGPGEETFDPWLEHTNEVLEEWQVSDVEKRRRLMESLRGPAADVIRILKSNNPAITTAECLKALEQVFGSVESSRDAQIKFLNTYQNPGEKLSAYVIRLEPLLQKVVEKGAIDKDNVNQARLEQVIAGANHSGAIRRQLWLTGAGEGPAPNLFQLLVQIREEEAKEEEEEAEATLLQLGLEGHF
CMTM5, Q96DZ9-2, sequence (Q96DZ9 other isoform, or with tags, fused parts or gaps): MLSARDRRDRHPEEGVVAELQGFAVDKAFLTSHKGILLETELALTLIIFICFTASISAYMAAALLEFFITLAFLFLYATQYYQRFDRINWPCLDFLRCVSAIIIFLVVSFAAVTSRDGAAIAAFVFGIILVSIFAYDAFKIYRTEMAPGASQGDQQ
AGTRAP, Q6RW13-2, sequence (Q6RW13 other isoform, or with tags, fused parts or gaps): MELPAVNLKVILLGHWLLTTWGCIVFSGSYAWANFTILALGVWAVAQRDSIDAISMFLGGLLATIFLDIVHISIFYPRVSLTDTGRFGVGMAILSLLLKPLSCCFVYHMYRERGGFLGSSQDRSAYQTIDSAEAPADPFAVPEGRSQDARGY

Actin, cytoplasmic 2 (Homo sapiens) (from UniProt P63261) I122V
effect of a mutation on the interaction (cap2_human CAP2 [1]): disrupting interaction strength | effect of a mutation on the interaction (cof2_human CFL2): disrupting interaction strength

Actin, cytoplasmic 2 (Homo sapiens) (from UniProt P63261) P264L
effect of a mutation on the interaction (cap2_human CAP2 [2]): causing an interaction | effect of a mutation on the interaction (cap2_human CAP2 [1]): with no effect | effect of a mutation on the interaction (cof2_human CFL2): disrupting interaction strength

Aprataxin (Homo sapiens), Q7Z2E3-7 A198V
effect of a mutation on the interaction (pnma1_human PNMA1): with no effect

Aprataxin (Homo sapiens), Q7Z2E3-7 H228R
effect of a mutation on the interaction (pnma1_human PNMA1): disrupting interaction strength

Aprataxin (Homo sapiens), Q7Z2E3-7 V263G
effect of a mutation on the interaction (pnma1_human PNMA1): disrupting interaction strength

Atypical kinase COQ8A, mitochondrial (Homo sapiens), Q8NI60 E551K
effect of a mutation on the interaction (praf1_human RABAC1): disrupting interaction strength | effect of a mutation on the interaction (ldaf1_human LDAF1): disrupting interaction strength | effect of a mutation on the interaction (TMEM239, Q8WW34-2): disrupting interaction strength | effect of a mutation on the interaction (reep6_human REEP6): disrupting interaction strength | effect of a mutation on the interaction (AGTRAP, Q6RW13-2): with no effect | effect of a mutation on the interaction (shlb1_human SH3GLB1): disrupting interaction strength | effect of a mutation on the interaction (tfp11_human TFIP11): disrupting interaction strength | effect of a mutation on the interaction (dtx2_human DTX2): disrupting interaction strength | effect of a mutation on the interaction (CMTM5, Q96DZ9-2): with no effect

Atypical kinase COQ8A, mitochondrial (Homo sapiens), Q8NI60 G272V
effect of a mutation on the interaction (praf1_human RABAC1): disrupting interaction strength | effect of a mutation on the interaction (ldaf1_human LDAF1): disrupting interaction strength | effect of a mutation on the interaction (TMEM239, Q8WW34-2): disrupting interaction strength | effect of a mutation on the interaction (reep6_human REEP6): disrupting interaction strength | effect of a mutation on the interaction (AGTRAP, Q6RW13-2): with no effect | effect of a mutation on the interaction (shlb1_human SH3GLB1): with no effect | effect of a mutation on the interaction (tfp11_human TFIP11): disrupting interaction strength | effect of a mutation on the interaction (dtx2_human DTX2): with no effect | effect of a mutation on the interaction (CMTM5, Q96DZ9-2): with no effect

Atypical kinase COQ8A, mitochondrial (Homo sapiens), Q8NI60 H80Y
effect of a mutation on the interaction (praf1_human RABAC1): with no effect | effect of a mutation on the interaction (ldaf1_human LDAF1): with no effect | effect of a mutation on the interaction (TMEM239, Q8WW34-2): with no effect | effect of a mutation on the interaction (reep6_human REEP6): with no effect | effect of a mutation on the interaction (AGTRAP, Q6RW13-2): with no effect | effect of a mutation on the interaction (shlb1_human SH3GLB1): with no effect | effect of a mutation on the interaction (tfp11_human TFIP11): with no effect | effect of a mutation on the interaction (dtx2_human DTX2): with no effect | effect of a mutation on the interaction (CMTM5, Q96DZ9-2): with no effect

Atypical kinase COQ8A, mitochondrial (Homo sapiens), Q8NI60 H85Q
effect of a mutation on the interaction (praf1_human RABAC1): with no effect | effect of a mutation on the interaction (ldaf1_human LDAF1): with no effect | effect of a mutation on the interaction (TMEM239, Q8WW34-2): with no effect | effect of a mutation on the interaction (reep6_human REEP6): with no effect | effect of a mutation on the interaction (AGTRAP, Q6RW13-2): with no effect | effect of a mutation on the interaction (shlb1_human SH3GLB1): with no effect | effect of a mutation on the interaction (tfp11_human TFIP11): with no effect | effect of a mutation on the interaction (dtx2_human DTX2): with no effect | effect of a mutation on the interaction (CMTM5, Q96DZ9-2): with no effect

Atypical kinase COQ8A, mitochondrial (Homo sapiens), Q8NI60 R213W
effect of a mutation on the interaction (praf1_human RABAC1): disrupting interaction strength | effect of a mutation on the interaction (ldaf1_human LDAF1): disrupting interaction strength | effect of a mutation on the interaction (TMEM239, Q8WW34-2): disrupting interaction strength | effect of a mutation on the interaction (reep6_human REEP6): disrupting interaction strength | effect of a mutation on the interaction (AGTRAP, Q6RW13-2): disrupting interaction strength | effect of a mutation on the interaction (shlb1_human SH3GLB1): disrupting interaction strength | effect of a mutation on the interaction (tfp11_human TFIP11): disrupting interaction strength | effect of a mutation on the interaction (dtx2_human DTX2): disrupting interaction strength | effect of a mutation on the interaction (CMTM5, Q96DZ9-2): disrupting interaction strength

Atypical kinase COQ8A, mitochondrial (Homo sapiens), Q8NI60 Y514C
effect of a mutation on the interaction (praf1_human RABAC1): with no effect | effect of a mutation on the interaction (ldaf1_human LDAF1): with no effect | effect of a mutation on the interaction (TMEM239, Q8WW34-2): with no effect | effect of a mutation on the interaction (reep6_human REEP6): with no effect | effect of a mutation on the interaction (AGTRAP, Q6RW13-2): with no effect | effect of a mutation on the interaction (shlb1_human SH3GLB1): with no effect | effect of a mutation on the interaction (tfp11_human TFIP11): with no effect | effect of a mutation on the interaction (dtx2_human DTX2): with no effect | effect of a mutation on the interaction (CMTM5, Q96DZ9-2): with no effect

Cytosolic 5'-nucleotidase 3A (Homo sapiens) (from UniProt Q9H0P0) C113R
effect of a mutation on the interaction (UBQLN1, Q9UMX0-2): with no effect

Cytosolic 5'-nucleotidase 3A (Homo sapiens) (from UniProt Q9H0P0) D137V
effect of a mutation on the interaction (UBQLN1, Q9UMX0-2): with no effect

Cytosolic 5'-nucleotidase 3A (Homo sapiens) (from UniProt Q9H0P0) F36L
effect of a mutation on the interaction (UBQLN1, Q9UMX0-2): with no effect

Cytosolic 5'-nucleotidase 3A (Homo sapiens) (from UniProt Q9H0P0) G207R
effect of a mutation on the interaction (UBQLN1, Q9UMX0-2): disrupting interaction strength

Cytosolic 5'-nucleotidase 3A (Homo sapiens) (from UniProt Q9H0P0) G280R
effect of a mutation on the interaction (UBQLN1, Q9UMX0-2): with no effect

Erythroid transcription factor (Homo sapiens), P15976-2 D218G
effect of a mutation on the interaction (mdfi_human MDFI): with no effect | effect of a mutation on the interaction (trip6_human TRIP6): with no effect | effect of a mutation on the interaction (lzts2_human LZTS2): with no effect | effect of a mutation on the interaction (kra32_human KRTAP3-2): with no effect

Erythroid transcription factor (Homo sapiens), P15976-2 G208R
effect of a mutation on the interaction (mdfi_human MDFI): with no effect | effect of a mutation on the interaction (trip6_human TRIP6): with no effect | effect of a mutation on the interaction (lzts2_human LZTS2): with no effect | effect of a mutation on the interaction (kra32_human KRTAP3-2): with no effect

Erythroid transcription factor (Homo sapiens), P15976-2 V205M
effect of a mutation on the interaction (mdfi_human MDFI): with no effect | effect of a mutation on the interaction (trip6_human TRIP6): with no effect | effect of a mutation on the interaction (lzts2_human LZTS2): disrupting interaction strength | effect of a mutation on the interaction (kra32_human KRTAP3-2): with no effect

Surfactant protein C (Homo sapiens) (from UniProt P11686) H64P
effect of a mutation on the interaction (smim3_human SMIM3 [3]): with no effect | effect of a mutation on the interaction (SYNE4, Q8N205-2): with no effect | effect of a mutation on the interaction (smim3_human SMIM3 [4]): causing an interaction | effect of a mutation on the interaction (tmm79_human TMEM79): with no effect

Surfactant protein C (Homo sapiens) (from UniProt P11686) P30L
effect of a mutation on the interaction (smim3_human SMIM3 [3]): with no effect | effect of a mutation on the interaction (SYNE4, Q8N205-2): with no effect | effect of a mutation on the interaction (smim3_human SMIM3 [4]): causing an interaction | effect of a mutation on the interaction (tmm79_human TMEM79): with no effect

Transcription factor AP-2-alpha (Homo sapiens), P05549-5 G256E
effect of a mutation on the interaction (gsto2_human GSTO2): with no effect

Transcription factor AP-2-alpha (Homo sapiens), P05549-5 R248W
effect of a mutation on the interaction (gsto2_human GSTO2): with no effect

Transcription factor AP-2-alpha (Homo sapiens), P05549-5 R249G
effect of a mutation on the interaction (gsto2_human GSTO2): with no effect
